From patent publication US20150239975A1 (KOREA RESEARCH INSTITUTE OF BIOSCIENCE AND BIOTECHNOLOGY, published 2015)

T1: transmembrane 4 L six family member 5 (TM4SF5) protein (human, UniProt O14894 1-197)
T1 sequence (looked up): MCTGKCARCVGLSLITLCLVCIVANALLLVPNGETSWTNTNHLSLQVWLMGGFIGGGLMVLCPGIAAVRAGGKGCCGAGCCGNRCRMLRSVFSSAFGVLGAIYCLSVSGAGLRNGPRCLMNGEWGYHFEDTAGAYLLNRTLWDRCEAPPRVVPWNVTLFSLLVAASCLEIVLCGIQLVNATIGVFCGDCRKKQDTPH

B1: monoclonal antibody #88 (scFv-Fc form) (Fc fusion, not shown: a dimerising Fc or GST)
scFv: QVQLQQFGAELVRPGASVKLSCKASGYTFTDYEMHWVKQTPVHGLEWIGAIDPETGGTAYNQKFKGKATLTADKSSSTAYMELRSLTSEDSAVYYCTPNYWYFDVWGAGTSVTVSSADAVVTQTPLSLPVSLGDQASISCRSSQSLVHSNGNTYLHWYLQKPGQSPKLLIYKVSNRFSGVPDRFSGSGSGTDFTLKISRVEAEDLGVYFCSQSTHVPYTFGGGTKLELK
B2: monoclonal antibody #1 (scFv-Fc form) (Fc fusion, not shown: a dimerising Fc or GST)
scFv: EVQLQQFGAELVRPGASVTLSCKASGYTFTDYEMHWVKQTPVHGLEWIGAIDPETGGTAYNQKFKGKAILTADKSSSTAYMELRSLTSEDSAVYFCARLTLFYGNYDWPFDVWGTGTSVTVSSADIVMTQSQKFMSTSVGDRVSITCKASQNVRTAVAWYQQKPGQSPKLLIYWASTRHTGVPDRFTGSGSGTDFTLTISNVQSEDLADYFCQQYSSYPFTFGSGTKLEIK
B3: monoclonal antibody #27 (scFv-Fc form) (Fc fusion, not shown: a dimerising Fc or GST)
scFv: QVQLQQFGAELVRPGASVTLSCKASGYTFTDYEMHWVKQTPVHGLEWIGAIDPETGGTAYNQKFKGKAILTADKSSSTAYMELRSLTSEDSAVYYCTRPYLGYWGQGTTVTVSSADAVVTQTPLSLPVSLGDQASISCRSSQSLVHSNGNTYLHWYLQKPGQSPKLLIYKVSNRFSGVPDRFSGSGSGTDFTLKISRVEAEDLGVYYCFQGSHIPLTFGAGTKLELK
B4: monoclonal antibody #92 (scFv-Fc form) (Fc fusion, not shown: a dimerising Fc or GST)
scFv: EVQLQQSVADLVRPGASVKLSCTASGFNIENTYMHWVKQRPEQGLEWIGRIDPANGNTKYAPKFQDKATITADTSSNTAYLQLSSLTSEDTAVYYCTSLGAYWGQGTLVTVSAADAVLTQTPLSLPVSLGDQASISCRSSQSIVHSNGNTYLEWYLQKPGQSPKLLIYKVSNRFSGVPDRFSGSGSGTDFTLKISRVEAEDLGVYFCSQSTHVPLTFGAGTKLEIK
B5: monoclonal antibody #79 (scFv-Fc form) (Fc fusion, not shown: a dimerising Fc or GST)
scFv: GVQLQQSGAELVRPGASVKLSCKASGYTFTDYEMHWVKQTPVHGLEWIGAIDPETGGTAYNQKFKGKAILTADKSSSTAYMELRSLTSEDSAVYYCTVYGLAYWGQGTLVTVSAADVVMTQTPLSLPVSLGDQASISCRSSQSLVHSNGNTYLHWYLQKPGQSPKLLIYKVSNRFSGVPDRFSGSGSGTDFTLKISRVEAEDLGVYFCSQNTHVPYTFGGGTKLELK

Biological target: T1, transmembrane 4 L six family member 5 …
Experiment: cell-based or functional assay

Protein | inhibition of growth of TM4SF5-overexpressing liver cancer cells (Tp, T16) in the absence of serum, 20 µg/mL antibody [%] | inhibition of infiltration of TM4SF5-overexpressing liver cancer cells (Tp), transwell assay, 20 µg/mL antibody [%] | inhibition of invasion of TM4SF5-overexpressing liver cancer cells (Tp), transwell assay, 20 µg/mL antibody [%]
B1 | ~50 | 73 | –
B2 | – | – | 83
B3 | – | – | 56
B4 | ~50 | 46 | –
B5 | – | – | 49
